Test results taken from patent US12692524B2, “Sialyltransferases and their use in producing sialylated oligosaccharides” (Chr. Hansen A/S, priority 2017, dated 2026).

Tests used:
[1] = In vitro kinetics (Km, Vmax), donor substrate CMP-Neu5Ac; type: biochemical; conditions: 30° C., pH7.5, protein extract
Procedure: (§1) To rank the best performing sialyltransferases, their Km values for donor and acceptor substrates were determined in vitro. Escherichia coli BL21(DE3) strain #287 was used for overproduction of the enzymes. Cells were incubated in 100 ml 2YT medium in shaking flasks supplemented with 100 μg m^−1 ampicillin at 30° C. until an OD600 of 0.3 was reached. Then, 0.3 mM IPTG was added and the incubation was continued for 12 to 16 hours. Cells were harvested by centrifugation and mechanically disrupted in a defined volume of 50 mM Tris-HCl pH7.5 using glass beads. The protein extract was kept on ice until the assay started. The in vitro assay was carried out in a total volume of 50 μl including 50 mM Tris-HCl pH7.5, 5 mM MgCl2 and varying concentrations of CMP-Neu5Ac (0.05-30 mM) as well as of lactose or LNT (0.1-50 mM). The assay started with the addition of 35 to 750 μg protein extract. After 1 to 10 minutes of incubation at 30° C., the assay was inactivated at 95° C. for 5 minutes. Product formation was determined by mass spectrometry. Data were evaluated using the enzyme kinetic module of SigmaPlot v12.5 to calculate Km and Vmax.
(§2) Their kinetic parameters for CMP-Neu5Ac and LNT as well as lactose are depicted in Table 6.

[2] = In vitro kinetics (Km, Vmax), acceptor substrate lactose; type: biochemical; conditions: 30° C., pH7.5, protein extract
Procedure: as §1, §2

[3] = In vivo screening in E. coli #1363/#1730 with lactose as acceptor, sialyllactose identified by TLC; type: cell-based, Escherichia coli BL21(DE3); conditions: 1.5 mM lactose, 72 to 96 hours, qualitative via TLC
How it was run: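 E. coli BL21(DE3) #1363/#1730 expressing sialyltransferases were grown at 30 °C in mineral salts medium with 2% glucose and induced with 0.3 mM IPTG. After 1 h, 1.5 mM lactose was added, plus 1.5 mM sialic acid for #1730, and incubation ran 72–96 h. Cell lysates were analysed by silica TLC with thymol staining.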

[4] = Batch fermentation of LNT-producing E. coli BL21(DE3) #2130 expressing sialyltransferases, TLC of intracellular fraction; type: cell-based, Escherichia coli BL21(DE3); conditions: strain #2130, 3 mM lactose, 3 mM sialic acid, 48 hours after induction, validated by mass spectrometry
From the text: Escherichia coli BL21(DE3) strain #534 was used to construct a lacto-N-tetraose (LNT) producing strain. The β-1,3-N-acetylglucosaminyltransferase gene IgtA from Neisseria meningitidis MC58 (acc. no. NP_274923) was codon-optimized for expression in E. coli and prepared synthetically by gene synthesis. Together with the gene galT, encoding a galactose-1-phosphate uridylyltransferase from E. coli K-12 substr. MG1655 (acc. no. NP_415279), that was similarly obtained by gene synthesis, IgtA was inserted by transposition (SEQ ID NO: 188) using plasmid pEcomar-IgtA-galT. To enhance de novo synthesis of UDP-N-acetylglucosamine, genes encoding L-glutamine:D-fuctose-6-phosphate aminotransferase (glmS), phosphoglucosamine mutase from E. coli K-12 substr. MG1655 (glmM) and N-acetylglucosamine-1-phosphate uridyltransferase/glucosamine-1-phosphate acetyltransferase (glmU) from E. coli K-12 substr. MG1655 (acc. no. NP_418185, NP_417643, NP_418186, respectively) were codon-optimized and obtained by gene synthesis. The operon glmUM was cloned under the control of constitutive tetracyclin promoter Ptet while glmS was cloned under the constitutive PT5 promoter. […]

Molecule	Km [1]	Vmax CMP-Neu5Ac [1]	Km [2]	Vmax Lactose [2]	Production of sialyllactose in-vivo [3]	Intracellular formation of sialyllacto-N-tetraose [4]
SiaT19: sialyltransferase of Photobacterium leiognathi JT-SHIZ-145, acc. BAF91416, SEQ ID NO: 30 (protein, listed as Photobacterium leiognathi) MNDNQNTVDVVVSTVNDNVIENNTYQVKPIDTPTTFDSYSWIQTCGTPILKDDEKYSLSFDFVAPELDQDEKFCFEFTGDVDGKRYVTQTNLTVVAPTLEVYVDHASLPSLQQLMKIIQQKNEYSQNERFISWGRIRLTEDNAEKLNAHIYPLAGNNTSQELVDAVIDYADSKNRLNLELNTNTGHSFRNIAPILRATSSKNNILISNINLYDDGSAEYVSLYNWKDTDNKSQKLSDSFLVLKDYLNGISSEKPNGIYSIYNWHQLYHSSYYFLRKDYLTVETKLHDLREYLGGSLKQMSWDTFSQLSKGDKELFLNIVGFDQEKLQQEYQQSELPNFVFTGTTTWAGGETKEYYAQQQVNVVNNAINETSPYYLGREHDLFFKGHPRGGIINDIILGSFNNMIDIPAKVSFEVLMMTGMLPDTVGGIASSLYFSIPAEKVSFIVFTSSDTITDREDALKSPLVQVMMTLGIVKEKDVLFWC	1100 µM	0.09 µmol/min	3000 µM	0.09 µmol/min	6′-SL	LST-b
SiaT9: sialyltransferase of Vibrio sp. JT-FAJ-16, acc. BAF91160, SEQ ID NO: 2 (protein, listed as Vibrio sp.) MNNDNSTTTNNNAIEIYVDRATLPTIQQMTKIVSQKTSNKKLISWSRYPITDKSLLKKINAEFFKEQFELTESLKNIILSENIDNLIIHGNTLWSIDVVDIIKEVNLLGKNIPIELHFYDDGSAEYVRIYEFSKLPESEQKYKTSLSKNNIKFSIDGTDSFKNTIENIYGFSQLYPTTYHMLRADIFDTTLKINPLRELLSNNIKQMKWDYFKDFNYKQKDIFYSLTNFNPKEIQEDFNKNSNKNFIFIGSNSATATAEEQINIISEAKKENSSIITNSISDYDLFFKGHPSATFNEQIINAHDMIEINNKIPFEALIMTGILPDAVGGMGSSVFFSIPKEVKNKFVFYKSGTDIENNSLIQVMLKLNLINRDNIKLISDI	960 µM	0.16 µmol/min	2900 µM	0.18 µmol/min	3′-SL	LST-a
